Source: patent US20240376207A1 (JIANGSU HENGRUI PHARMACEUTICALS, published 2024)

T1: human PVRIG expressed on cells (human, UniProt Q6DKI7 41-326)
T1 sequence (looked up): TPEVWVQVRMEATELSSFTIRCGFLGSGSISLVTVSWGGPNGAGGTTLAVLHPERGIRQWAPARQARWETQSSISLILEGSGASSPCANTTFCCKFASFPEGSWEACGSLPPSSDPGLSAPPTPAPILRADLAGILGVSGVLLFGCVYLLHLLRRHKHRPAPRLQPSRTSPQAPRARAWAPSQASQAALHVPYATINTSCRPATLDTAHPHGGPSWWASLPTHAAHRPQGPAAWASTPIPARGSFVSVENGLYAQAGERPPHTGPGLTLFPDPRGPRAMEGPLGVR

T2: his-tagged human PVRIG (h-PVRIG-his) recombinant protein (human, UniProt Q6DKI7 41-171, limits assumed)
T2 construct: bought from Acrobiosystems; also called Human PVRIG-his; human PVRIG recombinant protein; not shown: his tag
T2 sequence (looked up): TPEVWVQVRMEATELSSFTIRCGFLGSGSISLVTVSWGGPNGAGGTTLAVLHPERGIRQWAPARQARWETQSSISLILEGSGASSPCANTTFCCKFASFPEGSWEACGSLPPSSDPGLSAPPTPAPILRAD

T3: mouse IgG2a Fc-tagged human PVRIG (h-PVRIG-mIgG2a Fc) recombinant protein (human, UniProt Q6DKI7 41-171, limits assumed)
T3 construct: bought from Acrobiosystems; not shown: mouse IgG2a Fc tag
T3 sequence (looked up): T2 sequence (looked up)

T4: cynomolgus monkey PVRIG expressed on cells (cynomolgus monkey, UniProt A0A2K5WVV8 1-322)
T4 construct: whole, on cells; also called Monkey PVRIG FACS; cells overexpressing cynomolgus monkey PVRIG
T4 sequence: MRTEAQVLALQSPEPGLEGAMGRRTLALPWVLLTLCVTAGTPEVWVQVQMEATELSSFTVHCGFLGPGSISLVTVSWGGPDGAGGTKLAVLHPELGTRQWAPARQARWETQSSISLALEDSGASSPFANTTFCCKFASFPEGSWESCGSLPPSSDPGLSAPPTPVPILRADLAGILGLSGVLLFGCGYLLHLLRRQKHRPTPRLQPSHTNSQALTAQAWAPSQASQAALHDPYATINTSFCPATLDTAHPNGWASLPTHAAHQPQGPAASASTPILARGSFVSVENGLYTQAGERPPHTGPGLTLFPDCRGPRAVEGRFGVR

T5: human TIGIT antigen (AcroBiosystem, TIT-H52H3) (human, UniProt Q495A1 22-141)
T5 sequence (looked up): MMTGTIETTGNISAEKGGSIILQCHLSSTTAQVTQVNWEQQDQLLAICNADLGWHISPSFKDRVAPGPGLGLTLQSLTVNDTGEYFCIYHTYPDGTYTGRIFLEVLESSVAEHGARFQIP

T6: his-tagged cynomolgus monkey PVRIG (cyno-PVRIG-his) recombinant protein (cynomolgus monkey)
T6 construct: expressed in HEK293, purified by Ni-NTA; also called Monkey PVRIG-his; cynomolgus monkey PVRIG recombinant protein
T6 chain: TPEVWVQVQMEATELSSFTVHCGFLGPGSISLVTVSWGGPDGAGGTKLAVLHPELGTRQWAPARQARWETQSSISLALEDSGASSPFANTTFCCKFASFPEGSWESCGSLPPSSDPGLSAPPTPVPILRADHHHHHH

B1: anti-PVRIG antibody 151 (antibody, human IgG4 S228P, F234A L235A, V domains shown)
VH: HVQLVESGGGSVQAGGSLRLSCVASASGFTYRPYCMAWFRQAPGKEREAVAGIDIFGGTTYADSVKGRFTASRDNAGFSLFLQMNDLKPEDTAMYYCAAGDSPDGRCPPLGQGLNYWGQGTQVTVSS
notes: no light chain
B2: anti-PVRIG antibody 38 (antibody, human IgG4 S228P, F234A L235A, V domains shown)
VH: QVQLVESGGGSVQAGGSLRLSCAASPSTYGPSDMAWFRQAPGKQREGVATISAAGRLTYYTDSVRGRFTISRDNAKNTMYLQMNSLKPEDTAMYYCAADFAGGSSLFADYKYWGQGTQVTVSS
notes: no light chain
B3: positive antibody Tab5 (antibody, human IgG4 S228P, kappa, F234A L235A, V domains shown)
VH: EVQLVESGGGVVKPGGSLRLSCAASGFTFGTSSMNWVRQAPGKGLEWVAVISFDGTEIHYADSVKGRFTISRDNSKSTVFLQMNSLRPDDTALYYCAKGSGNIYFYSGMDVWGQGTTVTVSS
VL: DIQMTQSPSTLSASVGDRVTITCRAGQSISGWLAWFQQKPGKAPNLLIYETSTLESGVPSRFSGSGSGTEYTLTISSLQPDDFATYYCQQYYSYPLTFGQGTKVEIKR
notes: Variable regions of CPA.7.021 (WO2016134333A1) on human IgG4 (S228P/F234A/L235A/K447A) and human kappa constant regions
B4: humanized anti-PVRIG/TIGIT bispecific antibody 1708-20H5 (bispecific antibody, human IgG4 S228P, kappa)
heavy: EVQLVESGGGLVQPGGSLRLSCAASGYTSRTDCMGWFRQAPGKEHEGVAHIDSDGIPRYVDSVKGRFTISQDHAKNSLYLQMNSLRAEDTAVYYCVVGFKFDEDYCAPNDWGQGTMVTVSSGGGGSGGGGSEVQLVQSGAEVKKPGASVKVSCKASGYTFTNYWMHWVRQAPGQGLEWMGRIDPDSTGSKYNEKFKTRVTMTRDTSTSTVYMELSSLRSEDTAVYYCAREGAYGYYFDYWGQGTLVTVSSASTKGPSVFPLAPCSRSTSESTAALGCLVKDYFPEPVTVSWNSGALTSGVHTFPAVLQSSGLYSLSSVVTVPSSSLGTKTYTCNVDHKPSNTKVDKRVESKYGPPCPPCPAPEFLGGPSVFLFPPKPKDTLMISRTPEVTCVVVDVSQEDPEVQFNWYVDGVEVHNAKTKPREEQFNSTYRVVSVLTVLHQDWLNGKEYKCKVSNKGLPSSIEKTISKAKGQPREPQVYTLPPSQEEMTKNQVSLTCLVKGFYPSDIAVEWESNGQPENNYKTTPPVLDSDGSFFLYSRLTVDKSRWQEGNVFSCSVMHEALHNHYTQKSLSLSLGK
light: DIQMTQSPSSLSASVGDRVTITCRASENIYSYLAWYQQKPGKSPKLLIYNARTLAEGVPSRFSGSGSGTDFTLTISSLQPEDFATYYCQYHSGSPLPFGGGTKVEIKRTVAAPSVFIFPPSDEQLKSGTASVVCLLNNFYPREAKVQWKVDNALQSGNSQESVTEQDSKDSTYSLSSTLTLSKADYEKHKVYACEVTHQGLSSPVTKSFNRGEC
B5: humanized anti-PVRIG/TIGIT bispecific antibody 1708-30H2 (bispecific antibody, human IgG4 S228P, kappa)
heavy: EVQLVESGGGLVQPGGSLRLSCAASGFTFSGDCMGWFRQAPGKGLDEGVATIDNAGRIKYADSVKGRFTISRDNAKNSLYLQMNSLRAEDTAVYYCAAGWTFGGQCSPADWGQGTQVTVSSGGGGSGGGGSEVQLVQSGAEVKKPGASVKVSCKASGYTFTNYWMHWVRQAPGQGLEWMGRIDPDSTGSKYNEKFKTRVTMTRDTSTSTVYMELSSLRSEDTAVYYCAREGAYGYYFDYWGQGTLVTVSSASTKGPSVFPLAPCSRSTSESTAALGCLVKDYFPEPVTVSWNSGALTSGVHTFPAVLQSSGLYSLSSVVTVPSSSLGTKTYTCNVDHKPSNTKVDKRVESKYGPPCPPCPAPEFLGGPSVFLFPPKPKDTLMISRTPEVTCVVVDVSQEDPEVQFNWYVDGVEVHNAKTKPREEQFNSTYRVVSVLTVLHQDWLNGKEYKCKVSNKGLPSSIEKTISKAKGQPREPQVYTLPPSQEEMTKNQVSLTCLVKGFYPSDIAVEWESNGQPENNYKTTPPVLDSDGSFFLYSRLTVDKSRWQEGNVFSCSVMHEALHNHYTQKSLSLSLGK
light: B4 light

What was measured:
[1] = target: T1, human PVRIG expressed on cells; test: cell-based or functional assay
[2] = target: T2, his-tagged human PVRIG (h-PVRIG-his) …; test: ELISA, coated antigen
[3] = target: T1, human PVRIG expressed on cells; test: cell-based or functional assay; remark: listed apart in the source
[4] = target: T1, human PVRIG expressed on cells; test: FACS, cells overexpressing target
[5] = target: T1, human PVRIG expressed on cells; test: FACS, HEK293 cells overexpressing target
Protocol: The expression plasmid carrying human or cynomolgus monkey PVRIG gene sequence was transfected into HEK293 cells, and the over-expressing stable transfection monoclonal cell strain was obtained by antibiotic screening and infinite dilution. Overexpressing cells were seeded into a 96-well plate at 2×10⁵ cells/per well. The cells were centrifuged at 300 g for 5 min, the supernatant was then removed, 100 μL of the test antibody was added, and the mixture was incubated at 4° C. for 1 h. The mixture was centrifuged, the supernatant was removed, the plate was washed 3 times with 200 μL of wash buffer (PBS+2% FBS), and then 100 μL of an anti-human IgG secondary antibody (Invitrogen, A-11013) labeled with Alexa Fluor 488 diluted at 1:500 was added. The mixture was incubated at 4° C. for 1 h. The plate was centrifuged, and the supernatant was removed. The plate was washed 3 times with 200 μL of wash buffer (PBS+2% FBS). The cells were resuspended in 100 μL of PBS and tested on a flow cytometer (BD FACS Calibur or BD FACS Canto_II).
Binding of the humanized anti-PVRIG antibodies to human or cynomolgus monkey PVRIG was detected by using a flow cytometer according to the method of Example 5.

[6] = target: T3, mouse IgG2a Fc-tagged human PVRIG …; test: competition ELISA; human PVRIG coated, competitor human PVRL2
[7] = target: T4, cynomolgus monkey PVRIG expressed on …; test: FACS, cells overexpressing target
[8] = target: T5, human TIGIT antigen (AcroBiosystem, …); test: SPR (Biacore X100), antibody captured on Protein A chip, 1:1 fit
[9] = target: T6, his-tagged cynomolgus monkey PVRIG …; test: as above

| reporter gene activity, fold of the positive antibody Tab5 [1] [fold] | EC50 [7] [nM] | Kd [8] [nM] | koff [8] [s⁻¹] | kon [8] [M⁻¹ s⁻¹] | Kd [9] [nM] | koff [9] [s⁻¹] | kon [9] [M⁻¹ s⁻¹] | other results | Binder |
| --- | --- | --- | --- | --- | --- | --- | --- | --- | --- |
| 3.7 to 18.5 | – | – | – | – | – | – | – | – | B1 |
| 3.7 to 18.5 | – | – | – | – | – | – | – | – | B2 |
| – | – | – | – | – | – | – | – | EC50 [2]: 1.86 nM; PVRIG reporter gene cell activity EC50 [3]: 1.38 nM; EC50 [4]: 3.15 nM; EC50 [5]: 0.16 nM; IC50 [6]: 0.797 nM | B3 |
| – | 0.07 | 0.0763 | 0.00015 | 1.97e+06 | 7.05 | 0.181 | 2.56e+07 | – | B4 |
| – | 3.54 | 0.0512 | 0.000158 | 3.08e+06 | 31.9 | 0.581 | 1.82e+07 | – | B5 |
